{"source": "the RNAGym collection of RNA variant scans (doi:10.1073/pnas.2313332121)", "parents": {"B1": {"name": "TPR t1 (parent)", "chain": "GACCAAUCUGCCCUCAGAGCUCGAGAACAUCUUCGGAUGCAGAGGAGGCAGGCUUCGGUGGCGCGAUAGCGCCAACGUCCUCAACCUCCAAUGCAUCCCACCACAUGAUGAUGCCUGAAGAGCCUUGGUUUUUUG"}}, "data": [{"variants_of": "B1", "experiment": "polymerase ribozyme fitness, log enrichment relative to wild type (log ratio); higher = more active; in vitro selection for triplet polymerase activity", "method_in_brief": "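To select mutant libraries of each subunit of a heterodimeric triplet polymerase ribozyme, built by PCR and transcribed, each was annealed with a biotinylated primer, partner subunit and triplets, then incubated frozen at −7 °C. Extended constructs were gel-excised, captured on streptavidin beads and amplified by RT-PCR, in one round carried out in triplicate. Illumina sequencing of input and output libraries kept genotypes with ≥10 input reads and ≥1 read per output. Fitness is the base-2 logarithm of genotype enrichment relative to wild-type enrichment, from inverse-variance-weighted replicate averages.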", "values": [{"variant": "A5U G10A C11A C72G G110A", "polymerase ribozyme fitness (log ratio)": -1.86}, {"variant": "C80U G120C G127C", "polymerase ribozyme fitness (log ratio)": -0.289}, {"variant": "C20G U38G C76G", "polymerase ribozyme fitness (log ratio)": -5.6}, {"variant": "U55C U130G", "polymerase ribozyme fitness (log ratio)": -1.43}, {"variant": "G48A C72A U116C", "polymerase ribozyme fitness (log ratio)": -1.09}, {"variant": "A41U G51A U87G U112A A119G", "polymerase ribozyme fitness (log ratio)": -4.72}, {"variant": "C11U G61U C76U A111C", "polymerase ribozyme fitness (log ratio)": -5.8}, {"variant": "C13U U59C A83U U96G", "polymerase ribozyme fitness (log ratio)": -1.05}, {"variant": "C8A G19U", "polymerase ribozyme fitness (log ratio)": -2.62}, {"variant": "U112G G127C U130C", "polymerase ribozyme fitness (log ratio)": -0.498}, {"variant": "C40A G63A G128U", "polymerase ribozyme fitness (log ratio)": -4.66}, {"variant": "C82U A90U C97U A118G", "polymerase ribozyme fitness (log ratio)": -2.4}, {"variant": "A26G C70U C94G A103G G117C", "polymerase ribozyme fitness (log ratio)": -7.12}, {"variant": "G69U C115A G120A", "polymerase ribozyme fitness (log ratio)": 0.825}, {"variant": "C62U U129G", "polymerase ribozyme fitness (log ratio)": -1.28}, {"variant": "C62U U129C", "polymerase ribozyme fitness (log ratio)": 0.0239}, {"variant": "G60U U87A C123G", "polymerase ribozyme fitness (log ratio)": 1.56}, {"variant": "A29G U32C A50U C73U", "polymerase ribozyme fitness (log ratio)": -2.14}, {"variant": "G51A C79G C80G A84C C124G G128C", "polymerase ribozyme fitness (log ratio)": -7.76}, {"variant": "C22G A43U", "polymerase ribozyme fitness (log ratio)": -3.99}, {"variant": "C13U C28G A43G G110C", "polymerase ribozyme fitness (log ratio)": -0.443}, {"variant": "U96C U106A", "polymerase ribozyme fitness (log ratio)": -1.43}, {"variant": "G44C G51U G60U C123U", "polymerase ribozyme fitness (log ratio)": -2.6}, {"variant": "C88A U106A", "polymerase ribozyme fitness (log ratio)": -0.303}, {"variant": "G36A G60C U78C C79U C85A A90G", "polymerase ribozyme fitness (log ratio)": -3.89}, {"variant": "G17U G47U", "polymerase ribozyme fitness (log ratio)": -5.05}, {"variant": "C79A C124A", "polymerase ribozyme fitness (log ratio)": 0.574}, {"variant": "G44C G61A A95U G110A", "polymerase ribozyme fitness (log ratio)": -1.72}, {"variant": "U9A C62G C79G", "polymerase ribozyme fitness (log ratio)": -4.02}, {"variant": "A46U C62U", "polymerase ribozyme fitness (log ratio)": -1.12}, {"variant": "G42C C115U G120U U129G", "polymerase ribozyme fitness (log ratio)": -4.74}, {"variant": "A16U A18U", "polymerase ribozyme fitness (log ratio)": -3.06}, {"variant": "G60A A83C", "polymerase ribozyme fitness (log ratio)": -0.195}, {"variant": "U21A G135U", "polymerase ribozyme fitness (log ratio)": -0.915}, {"variant": "G10U C22G A46G C76A A118U", "polymerase ribozyme fitness (log ratio)": -4.37}, {"variant": "C49U C73U G110A", "polymerase ribozyme fitness (log ratio)": -1.42}, {"variant": "A111C U126C", "polymerase ribozyme fitness (log ratio)": 0.272}, {"variant": "C31U G71U G120U", "polymerase ribozyme fitness (log ratio)": -4.2}, {"variant": "G60U U126C", "polymerase ribozyme fitness (log ratio)": -0.44}, {"variant": "A105U C124U", "polymerase ribozyme fitness (log ratio)": -0.354}, {"variant": "A90U C97U", "polymerase ribozyme fitness (log ratio)": -2.38}, {"variant": "G57C C82G C97U", "polymerase ribozyme fitness (log ratio)": -1.07}, {"variant": "C3G C12G C62U", "polymerase ribozyme fitness (log ratio)": -2.34}, {"variant": "G35U G63A U67G C88A C124A G127C U132A", "polymerase ribozyme fitness (log ratio)": -7.2}, {"variant": "A6G C49U G60C G135U", "polymerase ribozyme fitness (log ratio)": -2.21}, {"variant": "C12G A50U G117C U125C", "polymerase ribozyme fitness (log ratio)": -6.32}, {"variant": "C64U U78G", "polymerase ribozyme fitness (log ratio)": -0.112}, {"variant": "C53G G57U G61A", "polymerase ribozyme fitness (log ratio)": -0.189}, {"variant": "G17A C20U G57C G61A", "polymerase ribozyme fitness (log ratio)": -4.32}, {"variant": "C34G C80U C89G G120C U129C", "polymerase ribozyme fitness (log ratio)": -6.96}, {"variant": "C85G U131A", "polymerase ribozyme fitness (log ratio)": -1.92}, {"variant": "A41G G57A U106C", "polymerase ribozyme fitness (log ratio)": -1.93}, {"variant": "G35U G61A C98G G107C C115A G120A", "polymerase ribozyme fitness (log ratio)": -7.51}, {"variant": "C70U G117C", "polymerase ribozyme fitness (log ratio)": -4.24}, {"variant": "G42A U87A C89U", "polymerase ribozyme fitness (log ratio)": -2.26}, {"variant": "U7G G52A U106C G122U U131G", "polymerase ribozyme fitness (log ratio)": -0.951}, {"variant": "G25A G71A C79G C115U", "polymerase ribozyme fitness (log ratio)": -7.59}, {"variant": "G60A U116C A118C", "polymerase ribozyme fitness (log ratio)": -3.05}, {"variant": "U38G G39U U54G G69U U87A G113C", "polymerase ribozyme fitness (log ratio)": -4.25}, {"variant": "G48A U59A C72G G120U G135A", "polymerase ribozyme fitness (log ratio)": -2.76}, {"variant": "C13U C40U C124U G135C", "polymerase ribozyme fitness (log ratio)": 0.605}, {"variant": "G93A A118U U133A", "polymerase ribozyme fitness (log ratio)": 0.0816}, {"variant": "C40U C53U C70U C72U C97U", "polymerase ribozyme fitness (log ratio)": -1.36}, {"variant": "C34G A83G", "polymerase ribozyme fitness (log ratio)": -6.49}, {"variant": "G17A A46C G63U A74U C89G C102U A105U", "polymerase ribozyme fitness (log ratio)": -7.26}, {"variant": "C28U C80A", "polymerase ribozyme fitness (log ratio)": -5.53}, {"variant": "C53G A90G", "polymerase ribozyme fitness (log ratio)": 0.537}, {"variant": "C11U C49A U55C G60A U87A C88G A95C A121U", "polymerase ribozyme fitness (log ratio)": -2.74}, {"variant": "A18C C62G U87C A90C G110C C115A", "polymerase ribozyme fitness (log ratio)": -7}, {"variant": "C64A U87A", "polymerase ribozyme fitness (log ratio)": -6.3}, {"variant": "G10C U32C G52A U112A G128A", "polymerase ribozyme fitness (log ratio)": -2.52}, {"variant": "C49U C73U U78C G110U", "polymerase ribozyme fitness (log ratio)": -2.87}, {"variant": "C11G A50U G93U G113U", "polymerase ribozyme fitness (log ratio)": -4.55}, {"variant": "C8U C72U C82A A84C A111C", "polymerase ribozyme fitness (log ratio)": 0.264}, {"variant": "C72U G93U C123G", "polymerase ribozyme fitness (log ratio)": -1.42}, {"variant": "C72A C101A", "polymerase ribozyme fitness (log ratio)": -1.15}, {"variant": "G71U C82A", "polymerase ribozyme fitness (log ratio)": -1.91}, {"variant": "G17A C86G", "polymerase ribozyme fitness (log ratio)": -4.48}, {"variant": "C8U G57U", "polymerase ribozyme fitness (log ratio)": -0.029}, {"variant": "G17A C20A G61C A119U C124A", "polymerase ribozyme fitness (log ratio)": -5.19}, {"variant": "C8G C62U U87A U112G G113U C123U G127A", "polymerase ribozyme fitness (log ratio)": -4.35}, {"variant": "A66C C94U", "polymerase ribozyme fitness (log ratio)": -0.92}, {"variant": "C11G C28G A105U G110U", "polymerase ribozyme fitness (log ratio)": -6.33}, {"variant": "U33C A46C", "polymerase ribozyme fitness (log ratio)": -6.49}]}]}
